According to article PMC9016638 (bioRxiv, 2022):
No end group written: not given here. *: point of attachment. Biotin = O=C1N[C@H]2[C@H](CS[C@H]2CCCCC(=O)*)N1

Experiments:
Experiment in all cases: […]
[1] = target: T1, SARS-CoV-2 S2 peptide 43 (SARS-CoV-2 Wuhan-Hu-1, UniProt P0DTC2)
T1 chain: Biotin-PSKRSFIEDLLFNKV

[2] = target: T2, SARS-CoV-2 S2 peptide 44 (SARS-CoV-2 Wuhan-Hu-1, UniProt P0DTC2)
T2 chain: Biotin-RSFIEDLLFNKVTLA

[3] = target: T3, SARS-CoV-2 S2 peptide 42 (SARS-CoV-2 Wuhan-Hu-1, UniProt P0DTC2)
T3 chain: Biotin-PSKPSKRSFIEDLLF

Measured: binding result

B1: COV44-79 (antibody, V domains shown)
VH: QVQLVESGGGVVQPGRSLRLSCAASGLTFSGYAMHWVRQAPGKGLEWVAVISRDARNKYYADSVKGRFTISRDNSKKTVYLEMNSLRVEDTAVYYCAILIIPGITEPGSPDALDIWGQGTMVSVSS
VL: DIQMTQSPSSMSASVGDRVTITCRASQDISKWLAWYQQRPGKAPKLLIYAASSLQSGVPSRFSGSGSGTDFTLTISSLQPEDFATYYCQQASSFPWSITFGQGTRLEIR
binds: all assays above

B2: COV44-62 (antibody, V domains shown)
VH: QMQLMQSGAEVKKPGASVTVSCKASGDTFSDYRIHWVRQAPGQGLEWMGRMNPKSGDTNFAQKFQGRVTMTRDMSINTAYMTLSGLTFDDTALYYCASLLIVGGFDPLDDFEVWGQGTMVTISS
VL: QSALTQPPSASGSPGQSVTISCSGTSSDVGGYNFVSWYQHHPGKAPKILIYEVTKRPSGVPDRFSGSKSGNTASLTVSGLQAEDEADYYCSSYGGTNNLLFGGGTKLTVL
binds: all assays above
